Measured values as given in the supplement of paper PMC7125110.
± gives the standard error. Variants at the floor of the assay were thinned out.

B1: glmS ribozyme (parent)
chain: AUAAAAGCGCCAGAACUACAGAAAUGUAGUUGACGAGGAGGAGGUUUAUCGAAUUUUCGGCGGAUGCCUCCAAA

Variants of: B1
Test: self-cleavage kobs at 2500 uM GlcN6P; higher = faster cleavage; RNA array
Conditions: with glucosamine-6-phosphate
How it was run: (§1)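 In situ transcription by E. coli RNA polymerase produced barcoded ribozyme variants on sequenced MiSeq chips, and a hybridised Cy3 probe tracked them at 37 °C. Glucosamine-6-phosphate was flowed in at 40 μM to 10 mM in HEPES/KCl/Mg(OAc)2 buffer. kcat and KM were taken from weighted Michaelis–Menten fits of kobs values from exponential decay fits.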

Row | Variant | self-cleavage kobs at 2500 uM GlcN6P [s⁻¹]
1 | G7A G9A G38A U65G | < 1e-05
2 | U31G G38C U46C U65G | < 1e-05
3 | C16A G29U C68U C71U | 6.71e-05 ± 2.1e-05
4 | A14G A15C C71A | 0.00262 ± 0.00058
5 | C16A A33C C71A | < 1e-05
6 | C8U A36U C50U | < 1e-05
7 | U31C C34A G41U U57G G60C | < 1e-05
8 | A15G G35A U46C A53C | < 1e-05
9 | G35A G40U G51A U69G | < 1e-05
10 | A12U G32A G35U U49A C61G U65C G66A | < 1e-05
11 | A12U G29C A36U G44U C61G | < 1e-05
12 | G7U G38U G66U | < 1e-05
13 | C11U U49A A52G | < 1e-05
14 | G51C C67G C71U | < 1e-05
15 | C8A G59A C70U | < 1e-05
16 | C8U G29U A36U | < 1e-05
17 | G44C G51A U55C U56C | < 1e-05
18 | A15U U55G C58U C70G | 6.29e-05 ± 2.7e-05
19 | G63C A64C C67A | < 1e-05
20 | A6G A14C G40C A53U G60C | < 1e-05
21 | C10A G41C C50G A53C | < 1e-05
22 | C10A C16G C50A C58G C61U | 6.15e-05 ± 1.9e-05
23 | C10G A14C U30G G43A | < 1e-05
24 | C8A C61G A64G | < 1e-05
25 | A33C G40U G62A C70G | < 1e-05
26 | G40C G44A U54A C61A A64G | < 1e-05
27 | C8G C11A G13U A33U A36C U55C C58G C71G | < 1e-05

Row | Variant | self-cleavage kobs at 2500 uM GlcN6P [s⁻¹]
28 | C11G U49C C70U | < 1e-05
29 | C8G A15U U55C | < 1e-05
30 | A39C G44C C67A | 0.000176 ± 4.5e-05
31 | C11U U49C U56G | < 1e-05
32 | G29C A42G C67G | 0.000111 ± 5.1e-05
33 | A6U G35U G59U | < 1e-05
34 | G9U G38C G40U G43C | < 1e-05
35 | C16A G29C U45C | 0.000155 ± 3.5e-05
36 | G44A A48G C67G | 8.88e-05 ± 2.9e-05
37 | U31C G32C A39G | 0.000381 ± 0.00015
38 | U30G U55A C61G C71G | 5.45e-05 ± 2.4e-05
39 | C10G C16G G32C A42U G60U | < 1e-05
40 | C11U G44C A52U G60C | < 1e-05
41 | A48G U69G | 0.000101 ± 3.7e-05
42 | A12G A42C G59U G63U | < 1e-05
43 | U31C U56C C70G | < 1e-05
44 | G29C C50U A53G C71U | < 1e-05
45 | C34A U47C A53U | < 1e-05
46 | C16A G32U U55G | 0.000117 ± 3.5e-05
47 | G43U G44A C50U C61G | < 1e-05
48 | U30G A53C U54A | 0.000695 ± 0.00017
49 | G41C A52C U55G G60C C68U | < 1e-05
50 | U30A A36U C71A | < 1e-05
51 | G41A A53C U54C G60C G63U | < 1e-05
52 | G43A U55C G59U C67G | < 1e-05
53 | A14G G44C | 0.000239 ± 4.2e-05
54 | G9A A42U | < 1e-05

Row | Variant | self-cleavage kobs at 2500 uM GlcN6P [s⁻¹]
55 | A6C G13U A33U A52C G63C | < 1e-05
56 | A12U C34U C71U | < 1e-05
57 | C10U G29C G62C | < 1e-05
58 | C11A U54C C58A G66C | < 1e-05
59 | G37U A39U G44C C50G C70U | < 1e-05
60 | A33G G38U G44A C67G C71U | < 1e-05
61 | U31A A39G C67U | 0.00111 ± 0.0004
62 | C16U G29U A53U | 0.00254 ± 0.00062
63 | A36U G38C U69C | < 1e-05
64 | C11U G29A G38U U47C | < 1e-05
65 | G9U G41C G59A C71U | < 1e-05
66 | A12C U49G G62U | < 1e-05
67 | G26U A33C C34A U47G | < 1e-05
68 | A52C A53G U57G C70G | 5.76e-05 ± 2.3e-05
69 | C8U G51U U57C | < 1e-05
70 | C10A G51U C67G | 0.000109 ± 5.4e-05
71 | G13C U47A U69G | 0.000497 ± 0.00015
72 | G7U A52G G60C C67G | < 1e-05
73 | A15G G32A C68U | 0.000247 ± 8.7e-05
74 | G29C G38U U56C | < 1e-05
75 | G35C A48G G51U U57G G60U | < 1e-05
76 | U47A A53G C70A | 0.000177 ± 4e-05
77 | G38A G51C A52U G62A | < 1e-05
78 | U31C G32A G38C G43A | < 1e-05
79 | U46G G51U C67A | < 1e-05
80 | C16U G43U U45G | 0.00141 ± 0.00031

Variants of: B1
Test: self-cleavage kobs at 10000 uM GlcN6P; higher = faster cleavage; RNA array
Conditions: with glucosamine-6-phosphate
How it was run: as §1

Row | Variant | self-cleavage kobs at 10000 uM GlcN6P [s⁻¹]
81 | G7A G9A G38A U65G | < 1e-05
82 | A48G U69G | 3.66e-05 ± 1.3e-05
83 | C16A G32U U55G | 0.000315 ± 4.6e-05
84 | U30A A36U C71A | < 1e-05
85 | A14G G44C | 0.000423 ± 7.7e-05
86 | C16U G29U A53U | 0.00591 ± 0.00094
87 | G9U G41C G59A C71U | < 1e-05
88 | U46G G51U C67A | < 1e-05
